Source: paper PMC4109836, “Analysis of the co-operative interaction between the allosterically regulated proteins GK and GKRP using tryptophan fluorescence” (Biochemical Journal, 2014)
Where two headings read alike, the source gives them in different places.

Experiments:
[1] = target: T1, hGKRP (0.3 μM)–GK-W99R/W167F/W257F (1 μM) complex, GKRP-WT (Homo sapiens, UniProt P35557+Q14397, W167F/W257F/W99R); assay: Ligand binding by / disassembly of GKRP-WT–GK-W99R/W167F/W257F complex by TF of hGKRP
T1 construct: FLAG; GST (cleaved yes); made in house; host or cells: Escherichia coli
T1 sequence (Q14397 1-625): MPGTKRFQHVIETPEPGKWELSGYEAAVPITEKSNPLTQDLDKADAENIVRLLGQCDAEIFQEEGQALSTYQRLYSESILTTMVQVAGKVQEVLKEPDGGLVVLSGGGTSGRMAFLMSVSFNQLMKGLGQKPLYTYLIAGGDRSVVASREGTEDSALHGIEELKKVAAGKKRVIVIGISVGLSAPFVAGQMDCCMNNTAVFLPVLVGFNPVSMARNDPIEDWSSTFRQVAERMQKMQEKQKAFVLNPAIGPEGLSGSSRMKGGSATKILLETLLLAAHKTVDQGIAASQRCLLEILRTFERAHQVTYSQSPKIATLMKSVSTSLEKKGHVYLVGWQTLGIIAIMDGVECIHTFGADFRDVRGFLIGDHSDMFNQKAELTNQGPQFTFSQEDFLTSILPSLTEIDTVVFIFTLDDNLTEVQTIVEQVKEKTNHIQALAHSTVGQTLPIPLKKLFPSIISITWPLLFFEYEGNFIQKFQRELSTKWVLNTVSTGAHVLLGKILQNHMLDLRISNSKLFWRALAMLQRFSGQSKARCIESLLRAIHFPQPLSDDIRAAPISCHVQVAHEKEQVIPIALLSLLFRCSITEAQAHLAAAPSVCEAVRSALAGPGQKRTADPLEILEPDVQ
T1 sequence (P35557 1-465 W99R/W167F/W257F): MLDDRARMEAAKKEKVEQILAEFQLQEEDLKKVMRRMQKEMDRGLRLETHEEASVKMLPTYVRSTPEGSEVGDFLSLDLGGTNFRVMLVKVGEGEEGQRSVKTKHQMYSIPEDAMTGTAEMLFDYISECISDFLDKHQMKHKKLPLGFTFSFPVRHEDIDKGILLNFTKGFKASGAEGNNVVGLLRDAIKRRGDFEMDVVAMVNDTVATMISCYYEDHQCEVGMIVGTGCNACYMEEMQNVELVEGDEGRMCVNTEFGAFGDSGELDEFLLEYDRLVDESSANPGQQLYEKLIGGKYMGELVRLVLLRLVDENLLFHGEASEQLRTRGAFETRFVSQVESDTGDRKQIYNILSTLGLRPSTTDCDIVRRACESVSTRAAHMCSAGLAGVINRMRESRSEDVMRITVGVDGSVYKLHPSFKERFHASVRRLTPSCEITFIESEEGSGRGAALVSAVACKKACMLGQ
Method: Spectra were measured with a Fluorolog-3-21 Jobin-Yvon Spex Instrument SA equipped with a 450 W Xenon lamp for excitation and a cooled R2658P Hamamatsu photomultiplier tube for detection. For all measurements, 90° geometry was employed and 295 nm excitation wavelengths were used to observe fluorescence emission in the 300–500 nm range. For TF, spectra slit width was set to provide a bandpath of 3 nm for excitation and 3 nm for emission. Spectra were corrected for instrumental response using Spex instrument software. A thermostatically controlled cell holder maintained sample temperature at 20°C. A thermocoupler was used to measure sample temperature. The buffer used contained 20 mM phosphate, 50 mM KCl, 1 mM EDTA and 1 mM DTT (pH 7.2).
Fluorescence data were obtained via the stepwise addition of the appropriate amount of non-fluorescent GK-W99R/W167F/W257F to GKRP in a fluorescence cuvette. […] The change in GKRP protein fluorescence during titration was also measured using time-dependent scans. A manual procedure was used such that a typical titration with 10–12 additions required 20–25 min to perform. The same buffer as described above was routinely used unless stated otherwise. The bandpath was 0.5 nm at 295 nm for excitation and 12 nm at 340 nm for emission. […] For some graphical presentations the linear form of the Hill equation was used: log[F/(Fsat−F)]=H log x−H log KD [46].

GK (glucokinase) = conditions: cited from earlier work
GKRP-WT = target: T2, GKRP-WT (Homo sapiens, UniProt P35557+Q14397, W167F/W257F/W99R); assay: Titration of GKRP-WT with GK-W99R/W167F/W257F (GK–GKRP complex assembly) by TF; format: binding; conditions: for Kd: read-out: S0.5 of GK;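 for all read-outs here: tryptophan fluorescence of GKRP titrated with GK, excitation 295 nm, emission read at 340 nm, phosphate buffer pH 7.2, Hill equation fitting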
T2 construct: FLAG; GST (cleaved yes); made in house; host or cells: Escherichia coli
T2 sequence (Q14397 1-625): T1 sequence (Q14397 1-625)
T2 sequence (P35557 1-465 W99R/W167F/W257F): T1 sequence (P35557 1-465 W99R/W167F/W257F)

[2] = addition of 6.6 mM D-glucose, 0.3 μM GKRP and 1 μM GK, pH 7.2, mono ExpDecay fit
[3] = ligand titration of 3:1 GK–GKRP-WT complex, 20°C
[4] = GK titration with 20 μM GKA, 20°C
[5] = GK titration with 500 μM F1P, 20°C
[6] = GK titration with 500 μM F6P, sigmoidal fit, 20°C
[7] = GK titration with 500 μM F6P, simple saturation fit (H = 1)
[8] = GK titration with 100 mM D-glucose and 20 μM GKA, 20°C
[9] = GK titration with 100 mM D-glucose and 500 μM F1P, 20°C
[10] = GK titration with 100 mM D-glucose and 500 μM F6P, 20°C
[11] = GK titration with 100 mM D-glucose, 20°C
[12] = GK titration, no further agent, sigmoidal fit, 20°C
[13] = GK titration, no further agent, simple saturation fit (H = 1)

Molecule: OC[C@H]1OC(O)[C@H](O)[C@@H](O)[C@@H]1O (stereo partly drawn) [D-Glucose, D-glucose]
- A (amplitude) of time-dependent decrease in GKRP-WT TF [1, 2]: 0.04
- τ of time-dependent decrease in GKRP-WT TF [1, 2]: 11 s
- H [1, 3]: 1
- ΔF (relative fluorescence change at 340 nm) [1, 3]: −0.065
- Kd ([1]; ligand titration of 3:1 GK–GKRP-WT complex, 20°C, read-out: Kd (apparent)): 12000 µM
- Hill coefficient of GK with respect to glucose (GK (glucokinase)): approximately 1.7
- affinity of GK for glucose (GK (glucokinase)): approximately 7.5 mM

B1: GK-W99R/W167F/W257F: tryptophan residue-free, non-fluorescent recombinant human β-cell GK made for the present study (protein)
chain: T1 sequence (P35557 1-465 W99R/W167F/W257F)
modifications: left off: GST, end not stated, cleaved
notes: tryptophan residue-free, non-fluorescent recombinant human β-cell GK made for the present study
- H (GKRP-WT; [4]): 3.4
- ΔF (GKRP-WT; [4]): 0.42
- Kd (GKRP-WT; [4]): 2.77 µM
- H (GKRP-WT; [5]): 2.8
- ΔF (GKRP-WT; [5]): 0.32
- Kd (GKRP-WT; [5]): 2.68 µM
- H (GKRP-WT; [6]): 1.71
- ΔF (GKRP-WT; [6]): 0.31
- Kd (GKRP-WT; [6]): 1.2 µM
- H (GKRP-WT; GK titration with 500 μM F6P, simple saturation fit): 1
- ΔF (GKRP-WT; [7]): 0.43
- Kd (GKRP-WT; [7]): 1.84 µM
- H (GKRP-WT; [8]): 3.2
- ΔF (GKRP-WT; [8]): 0.42
- Kd (GKRP-WT; [8]): 4.75 µM
- H (GKRP-WT; [9]): 2.25
- Kd (GKRP-WT; [9]): 3.3 µM
- H (GKRP-WT; [10]): 2.83
- ΔF (GKRP-WT; [10]): 0.35
- Kd (GKRP-WT; [10]): 2.43 µM
- H (GKRP-WT; [11]): 2.78
- ΔF (GKRP-WT; [11]): 0.42
- Kd (GKRP-WT; [11]): 2.56 µM
- H (GKRP-WT; [12]): 1.74
- ΔF (GKRP-WT; [12]): 0.29
- Kd (GKRP-WT; GK titration, no further agent, sigmoidal fit, 20°C, listed as GK): ~1.2 µM
- Kd (GKRP-WT; [12]): 1.22 µM
- H (GKRP-WT; GK titration, no further agent, simple saturation fit): 1
- ΔF (GKRP-WT; [13]): 0.39
- Kd (GKRP-WT; [13]): 1.85 µM
- maximal ΔTF value of GKRP-WT (GKRP-WT; range depending on the assay conditions): 0.29–0.42
- increase of the TF of GKRP-WT (GKRP-WT; saturating GK (5 μM), 0.3 μM GKRP): 29%
- S0.5 value of GK with GKRP-WT lower than with GKRP-P446L (on average) (GKRP-WT; with and without F6P): 35%
